Measured values taken from patent publication US20210205413A1 (Nektar Therapeutics, priority 2018, published 2021).
Several values for one entry are separate records, joined by “and”; a condition that tells them apart may be missing. Identical values can stand only once. Entries after “also recorded” stand apart in the source; their conditions may differ.

Experiments:
[1] = Phase I ascending multiple-dose study in patients with SLE: pharmacokinetics; assay type: in vivo, human; details: Multi-Dose Study
Procedure: The effects on SLE disease activity are also evaluated. Twelve SLE patients with minimal to moderate disease activity are randomized to each of four dose cohorts, nine of whom received multiple 1.0 mg/mL aqueous solution sub-cutaneous doses of RUR-IL-2-20 kD, while three received placebo. […] In Cohort 1, a starting dose of 3.0 μg/kg is administered three times at two-week intervals (Days 1, 15, and 29). This starting dose is based on the favorable safety and PD profile of single sub-cutaneous doses of RUR20kD-IL-2 previously determined in the study described above. The subsequent dose levels in Cohorts 2, 3, and 4, respectively, were up to two-fold that of the previous dose cohort. Patients in Cohorts 1-3 received three doses of study drug at two-week intervals over a total of four weeks. Doses to be evaluated over the course of the study range from 3.0 μg/kg to 24 μg/kg. […] After receiving the final dose of RUR20kD-IL-2 or placebo, patients are followed for an additional fifty days to evaluate safety, PK, PD, and preliminary efficacy. Eight of twelve subjects in each cohort are evaluated two weeks after the third dose of the final patient by the Safety Review Committee for possible safety issues. In addition, all patients in Cohort 4 are evaluated by the Safety Review Committee twice: (1) two weeks after the first eight subjects receive their third dose and (2) two weeks after all subjects receive all doses of study drug. Immunologic changes, including Tregs, CD4^+-T cells, CD8^+-T cells, and NK cell responses, cytokine levels, and available PK data, in addition to safety findings, are used to determine dose levels. The primary objective of the study is to evaluate the safety and tolerability of RUR20kD-IL-2 administered as multiple ascending subcutaneous doses to patients with SLE. […] Results depicting preliminary PK data from the ascending multi-dose study are compared with data from the single subcutaneous study in the below Table 15: […]

CD56+ NK cells = test: Phase I single ascending dose study in healthy volunteers: NK cells; assay type: in vivo, human
Procedure: A double-blind, randomized, placebo-controlled study is conducted to evaluate the safety, tolerability, pharmacokinetics, and pharmacodynamics of single ascending low sub-cutaneous doses of an RUR20kD-IL-2 composition (RUR20kD-IL-2) in healthy volunteers. […] Twelve subjects are randomized to each dose cohort, nine of whom received a single subcutaneous dose of RUR20kD-IL-2 while three received placebo. […] The drug product is supplied in single-use glass vials and stored at 2-8° C. […] Placebo is a commercially available 0.9% sodium chloride solution. A starting dose of 0.3 μg/kg is chosen using the minimally anticipated biological effect level (MABEL) approach and is supported by the no observed adverse effect level (NOAEL) in the most sensitive species from nonclinical toxicology studies.
The primary objective of the study is to evaluate the safety and tolerability of RUR20kD-IL-2 administered as a single subcutaneous dose. […] In a first phase of the study, immune markers are tested pre-dose up to 20 hours post-dose. Specifically, Tregs, CD4^+-T cells, CD8^+-T cells, natural killer (NK) cells, cytokines, soluble CD25, and RNA are tested in RUR20kD-IL-2- and placebo-receiving cohorts. In subsequent phases, the same immune markers are also tested at 4-, 5-, 6-, 7-, 8-, 10-, 12-, 15-, 18-, 20-, 25-, 30-, 40, and 50-days post-dose.

Tregs = test: Single-dose PK/PD study in mice: Tregs in blood and spleen by flow cytometry; assay type: in vivo, C57BL/6 mice
Source text: Following administration, blood and spleen samples are collected at days 1-7 and day 10 post administration. More particularly, at each time point, blood and spleen samples are collected; samples are pooled and assessed for pharmacodynamic analysis of drug action on lymphocyte cell populations by flow cytometry (see e.g. Example 5), expressed as a fold change relative to vehicle control. In addition to changes in cell numbers, functional markers and markers of activity are quantified. Finally, plasma drug concentration is also assessed.

[2] = Single dose pharmacokinetics in mice; assay type: in vivo, C57BL/6 Mice
[3] = C57BL/6 mice, single SC 0.03 mg/kg, plasma
[4] = C57BL/6 mice, single SC 0.1 mg/kg, plasma
[5] = C57BL/6 mice, single SC 0.3 mg/kg, plasma

(1,3-bis(methoxypoly(ethylene glycol)10kDcarbamoyl)-2-propanoxy)-4-butanamide)interleukin-2) [RUR20kD-IL-2]
AUC0-14 d ([1]; 3.0 μg/kg, Median (n = 9)): 185 ng·days/mL
Cmax ([1]; 3.0 μg/kg, Median (n = 9)): 18 ng/mL
tmax ([1]; 3.0 μg/kg, Median (n = 9)): 6 days
AUC0-14 d ([1]; 3.0 μg/kg, max): 291 ng·days/mL
Cmax ([1]; 3.0 μg/kg, max): 26 ng/mL
tmax ([1]; 3.0 μg/kg, max): 14 days
AUC0-14 d ([1]; 3.0 μg/kg, min): 113 ng·days/mL
Cmax ([1]; 3.0 μg/kg, min): 15 ng/mL
tmax ([1]; 3.0 μg/kg, min): 2 days
Cmax ([1]; 6.0 μg/kg, Median (n = 7)): 14 ng/mL
tmax ([1]; 6.0 μg/kg, Median (n = 7)): 6 days
AUC0-14 d ([1]; 6.0 μg/kg, max): 206 ng·days/mL
Cmax ([1]; 6.0 μg/kg, max): 22 ng/mL
tmax ([1]; 6.0 μg/kg, max): 14 days
AUC0-14 d ([1]; 6.0 μg/kg, min): 43 ng·days/mL
Cmax ([1]; 6.0 μg/kg, min): 5 ng/mL
tmax ([1]; 6.0 μg/kg, min): 4 days
increase in NK cells (CD56+ NK cells; highest dose tested (28.0 μg/kg)): 2 fold and 3.5 fold
percentage of CD56+ NK cells expressing Ki67 (CD56+ NK cells; single SC 3.0 μg/kg): ~10%
percentage of CD56+ NK cells expressing Ki67 (CD56+ NK cells; single SC 6.0 μg/kg): 20-30%
percentage of CD56+ NK cells expressing Ki67 (CD56+ NK cells; single SC 9.0 μg/kg): 30-40%
percentage of CD56+ NK cells expressing Ki67 (CD56+ NK cells; single SC 13.5 μg/kg): 30-40%
percentage and absolute numbers of NK cells (CD56+ NK cells; single SC 13.5 and 20.0 μg/kg): small increase in the percentage and absolute numbers of NK cells
time of peak increase in CD4+ Treg cell numbers (Tregs; blood and spleen, single SC dose 0.03-0.3 mg/kg): four days following administration; also recorded: four days after administration
duration of sustained Treg mobilization (Tregs; blood and spleen, single administration): 7 to 10 days
time until Treg levels return to baseline (Tregs; single SC 0.3 mg/kg): 7 to 10 days
day ICOS expression returns to baseline (Tregs; single SC dose): ≤ 7 days
day of peak ICOS expression on Treg (Tregs; single SC dose): 3 days
percentage of proliferating (Ki67) Treg, duration (Tregs; single SC dose): sustained through day 6
time of maximum of Treg activation markers (CD25 and Foxp3 MFI) (Tregs; single SC dose, highest dose 0.3 mg/kg, 0.3 mg/kg): in the first two days following administration; also recorded: within the first two days following administration
AUCinf [2, 3]: 22.9 µg·h/mL
AUClast [2, 3]: 21.5 µg·h/mL
Cmax [2, 3]: 0.333 µg/mL
Half-life [2, 3]: 2.24 days
MRTinf [2, 3]: 3.46 days
tmax [2, 3]: 0.33 days
AUCinf [2, 4]: 102 µg·h/mL
AUClast [2, 4]: 97.4 µg·h/mL
Cmax [2, 4]: 1.14 µg/mL
Half-life [2, 4]: 2.24 days
MRTinf [2, 4]: 3.39 days
tmax [2, 4]: 0.33 days
AUCinf [2, 5]: 245 µg·h/mL
AUClast [2, 5]: 238 µg·h/mL
Cmax [2, 5]: 3.33 µg/mL
Half-life [2, 5]: 1.85 days
MRTinf [2, 5]: 2.98 days
tmax [2, 5]: 1.00 days
tmax ([2]; mice, SC, range over doses): 0.33 to 1.0 days
half-lives ([2]; mice, range over doses): 1.85 to 2.24 days
